Earlier results, collected in PMC9776395.

Molecular target: His193 (UniProt position 193, WVLGEHGDSSV)
Assay: kinetics
Details: Enzyme-NADH complex binding pyruvate (pyruvate reduction direction)

Substance: L-lactate dehydrogenase A chain (LDHA, M subunit, LDH5 homotetramer) (Homo sapiens)
- pKa: 7.31
